Target: actin filaments (F-actin) assembled in vitro from DyLight-labeled actin and biotinylated actin (UniProt P68135)
Assay: TIRF microscopy of cofilin-EGFP on single actin filaments

cofilin-EGFP (recombinant mouse cofilin tagged on its C terminus) (from UniProt P18760 1-166) (natural protein)
average density of cofilin on stuck F-actin against that on mDia1(−) F-actin: 35 % lower

Source: paper PMC5984536
